Measured values as given in the supplement of paper PMC12042874.
± gives the uncertainty stated by the source.

Experiment: amyloid nucleation score (Sup35N fusion, yeast selection) (log enrichment); library NNK3; higher = more nucleation; inactive = no reads after selection
In short: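 The nucleation score is the DiMSum log enrichment of output over input reads, centred on the mode score of non-aggregating sequences. Only sequences with 100 or more input reads were scored, using Illumina sequencing of input and output plasmid inserts. Psi-negative yeast expressing Sup35N fused to peptides of 20 random codons were induced 24 hours with 100 μM copper sulfate and grown 7 days at 30°C on medium lacking adenine and uracil.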
In the case of PFNYVVRWESKLQSHYFGLY, the amyloid nucleation score is reported as “inactive”.
In the case of FWKNHRAIHSMFQRHLRHTF, the amyloid nucleation score is reported as “inactive”.
LFIFNGCAM gave an amyloid nucleation score of 2.31 ± 0.057.
For GVVLSYNGTFWRVLINHHMC, the amyloid nucleation score was “inactive”.
Work on DFGMVLSNRFKTMKDCSYFC yielded an amyloid nucleation score of 0.785 ± 0.23.
With RELVNSNALGNFLWETVCFS the amyloid nucleation score was “inactive”.
In the case of FCSVIFLISIYCTRFSLVYD, the amyloid nucleation score is reported as “inactive”.
With AESICALTML the amyloid nucleation score was “inactive”.
With DYVRKWS the amyloid nucleation score was “inactive”.
With MYTCLVPSSLK the amyloid nucleation score was “inactive”.
In the case of RVLYPVKVYRNDKMADWNN, the amyloid nucleation score is reported as “inactive”.
With QRMTLNLDRCPMSYWGSTIP the amyloid nucleation score was “inactive”.
For VGSLDVIVINQKFSVFVMSC, the amyloid nucleation score was “inactive”.
In the case of MWITIS, the amyloid nucleation score is reported as “inactive”.
For YLSVPVF, the amyloid nucleation score was “inactive”.
In the case of NMRVCCIGNSFSMGYLICWY, the amyloid nucleation score is reported as 2.47 ± 0.057.
For FVKKRLVKGKNFFIELFLMC, the amyloid nucleation score was “inactive”.
In the case of TSLVFLLGLSMFM, the amyloid nucleation score is reported as “inactive”.
For NFGTWDQSVLSLRMKLTCVP, the amyloid nucleation score was “inactive”.
For MYNNC, the amyloid nucleation score was “inactive”.
Substance DLFCCCYTLS has an amyloid nucleation score of 1.03 ± 0.2.
SWGQVGYIEFFIGSSCHVS showed an amyloid nucleation score of -0.378 ± 0.84.
For GSGMGL, the amyloid nucleation score was “inactive”.
With AANLGRSIPESSRKGIGFNF the amyloid nucleation score was “inactive”.
With GAFSWCSRVVDMVRLTRCDH the amyloid nucleation score was “inactive”.
For NCTVYLGTFCCSQGFAGLPP, the amyloid nucleation score was 3.07 ± 0.053.
In the case of NIRIDMMWSLSCHKLG, the amyloid nucleation score is reported as “inactive”.
With IVMKALNAFWTRTMLMFHHM the amyloid nucleation score was “inactive”.
For DRWVQAGSHTFTFLWDCERA, the amyloid nucleation score was “inactive”.
For LRGGMIEPNTRRYS, the amyloid nucleation score was 1 ± 0.15.
Work on VIFLGAYHNSLLNRAMHSGH yielded an amyloid nucleation score of 1.45 ± 0.12.
In the case of QMSFQSSYQVRLFLVPPFQW, the amyloid nucleation score is reported as 0.412 ± 0.23.
In the case of ILRFMYAVHDISFFYLIVCF, the amyloid nucleation score is reported as “inactive”.
For FFFVDMYWSDCLKDLLL, the amyloid nucleation score was “inactive”.
For VIMSRCPVHIDMVPRDAQPL, the amyloid nucleation score was “inactive”.
Substance YFGDPVLNASLVIVLHLYWL has an amyloid nucleation score of 1.21 ± 0.078.
RTLQVWHDWVVG gave an amyloid nucleation score of -0.555 ± 0.69.
With WPSGFCYR the amyloid nucleation score was “inactive”.
For DADYLT, the amyloid nucleation score was “inactive”.
For RDWCSNLMYYDYPVTEGCDT, the amyloid nucleation score was “inactive”.
In the case of CVILYLTGKSFIVLSIVVAE, the amyloid nucleation score is reported as “inactive”.
With FMKILQVTDWDPGSVYNSSN the amyloid nucleation score was “inactive”.
With SLHNM the amyloid nucleation score was “inactive”.
LTKCPCRLLCRLRSRARRMG showed an amyloid nucleation score of -0.328 ± 0.98.
With DEFINLSFA the amyloid nucleation score was “inactive”.
In the case of MIKVLCTLFIDWAVAYVICH, the amyloid nucleation score is reported as “inactive”.
In the case of HMNDASPGTAKFEIV, the amyloid nucleation score is reported as “inactive”.
In the case of RTNDHVNW, the amyloid nucleation score is reported as “inactive”.
For FDLETSLL, the amyloid nucleation score was “inactive”.
LCAYNSTWSACNWGFIHNSL gave an amyloid nucleation score of 2.58 ± 0.051.
With WLMIMDFKCLSPRTRSWRRM the amyloid nucleation score was “inactive”.
With FRSVSLWSSN the amyloid nucleation score was “inactive”.
For SVLHLWGLDYFNGEYTMRKG, the amyloid nucleation score was 1.02 ± 0.17.
For QGSHRGMKITGISWTVLGYW, the amyloid nucleation score was “inactive”.
In the case of FGTDDEDVKCNVMTALCRIW, the amyloid nucleation score is reported as “inactive”.
For HTRLAPWSMDEGRAV, the amyloid nucleation score was “inactive”.
In the case of AWTTQPPYMFSSGFWNFYVC, the amyloid nucleation score is reported as “inactive”.
In the case of VTRQLYVMGFVGHDEEGVVS, the amyloid nucleation score is reported as “inactive”.
In the case of DSISISY, the amyloid nucleation score is reported as “inactive”.
In the case of SCVWFSL, the amyloid nucleation score is reported as “inactive”.
For RFEFMGFSYPCHLTWLLVGY, the amyloid nucleation score was “inactive”.
In the case of VQWSEMTAFTGFFSVYISSG, the amyloid nucleation score is reported as “inactive”.
For SYLESISHPALESARVYVST, the amyloid nucleation score was “inactive”.
With HCSYCVVSE the amyloid nucleation score was “inactive”.
In the case of LFGTNQYYNY, the amyloid nucleation score is reported as “inactive”.
With QRDVDLMVSIGTPTSNRYET the amyloid nucleation score was “inactive”.
In the case of FSRPLPTPESYRW, the amyloid nucleation score is reported as -0.287 ± 1.3.
In the case of IQGYLANDVPMRNWPG, the amyloid nucleation score is reported as “inactive”.
With LPAMIGIWCILTH the amyloid nucleation score was “inactive”.
With LCAFHKRNRQEVACVMFVKS the amyloid nucleation score was “inactive”.
With MAKTMM the amyloid nucleation score was “inactive”.
In the case of LMKWALNTELKMG, the amyloid nucleation score is reported as “inactive”.
Work on NVYTPSIFACWSLCEGFFGI yielded an amyloid nucleation score of 2.2 ± 0.063.
In the case of LGNRQVRNLATYPDNYLTCT, the amyloid nucleation score is reported as “inactive”.
For VGMGLAKDVR, the amyloid nucleation score was “inactive”.
In the case of FGVCSLFESCIVSFNIVRRL, the amyloid nucleation score is reported as “inactive”.
For LENSNFWSCSWISRYIYIRN, the amyloid nucleation score was “inactive”.
With GVNDRGDENGVVGA the amyloid nucleation score was “inactive”.
With ELSYDRSKYSINSLWLGIPI the amyloid nucleation score was “inactive”.
RAECSISSIIIYCAGRPSLI showed an amyloid nucleation score of 1.07 ± 0.098.
In the case of VRPELMALTDI, the amyloid nucleation score is reported as “inactive”.
With LWLTLGDGIEGVYPRVGVKL the amyloid nucleation score was “inactive”.
With KAPDVLVNGRIL the amyloid nucleation score was “inactive”.
With CYNAKCHFIGYDVAGNSGVW the amyloid nucleation score was “inactive”.
For LEGQMTVRRDFTRFDW, the amyloid nucleation score was “inactive”.
With SHSMM the amyloid nucleation score was -0.218 ± 0.66.
For FFPFPKFWAGIVIAFY, the amyloid nucleation score was “inactive”.
For GGCIGGSYSLERMFYSRVDE, the amyloid nucleation score was “inactive”.
With KLLSSGFMMFWASYQTGYWR the amyloid nucleation score was “inactive”.
In the case of LMRTDNSSKNGSASGGGMSG, the amyloid nucleation score is reported as “inactive”.
With LSDSY the amyloid nucleation score was “inactive”.
For SFLIGVV, the amyloid nucleation score was “inactive”.
ISVGVLSVCCGIC showed an amyloid nucleation score of 2.57 ± 0.078.
For RSCYEVLRHGREL, the amyloid nucleation score was “inactive”.
In the case of GYVGLHTFSWEDLENRMDKH, the amyloid nucleation score is reported as “inactive”.
For MAINYTFFPPRLVT, the amyloid nucleation score was “inactive”.
With YRGPVGIDSGVRS the amyloid nucleation score was “inactive”.
With MSSRPGFNT the amyloid nucleation score was “inactive”.
With MHPKSNGTFMFKMAN the amyloid nucleation score was “inactive”.
With PERTPFGSNYIYFVKRTRLL the amyloid nucleation score was “inactive”.
For FPRHCKPRCL, the amyloid nucleation score was “inactive”.
Work on VNIYGCSYVLHPGCCNGESR yielded an amyloid nucleation score of 2.84 ± 0.073.
With SMCPPLQRG the amyloid nucleation score was “inactive”.
With TNRVIVSMRLYVMDLYYCRT the amyloid nucleation score was “inactive”.
In the case of RLFLINSGASDPNSQMSNLR, the amyloid nucleation score is reported as “inactive”.
With ACTFITRMYCGWHSS the amyloid nucleation score was “inactive”.
With VESLSVSAAL the amyloid nucleation score was “inactive”.
With NHCNTCSWFLQTS the amyloid nucleation score was 1.45 ± 0.14.
In the case of GGTLFLYGLIHQHWFLRMHE, the amyloid nucleation score is reported as 1.05 ± 0.16.
With DLYQPDS the amyloid nucleation score was “inactive”.
For YSCNKCVDEMRVRRGIERGV, the amyloid nucleation score was “inactive”.
For IGSNRRSFEVCTYIASKIPL, the amyloid nucleation score was “inactive”.
With HKRTTNIPFRFSNLC the amyloid nucleation score was “inactive”.
In the case of YALCPVRPGSQQGKLGVTFL, the amyloid nucleation score is reported as 0.503 ± 0.45.
With CLFSLLYPCGWINYSNSNMS the amyloid nucleation score was 0.437 ± 0.17.
In the case of YVWIDTMGL, the amyloid nucleation score is reported as “inactive”.
For AYCVFHSIYGV, the amyloid nucleation score was “inactive”.
In the case of NYAYTVMGGTIYRLWGRVMR, the amyloid nucleation score is reported as “inactive”.
With VGVNWTFPMPLSTL the amyloid nucleation score was “inactive”.
With AINVRRSLTTYPNFLDTVRS the amyloid nucleation score was “inactive”.
